Measurements taken from US20250042990A1 (Eli Lilly, published 2025).

Experiments:
human IL-1β [1] = target: T1, human IL-1β (human, UniProt P01584 117-269); experiment: MSD-SET (solution equilibrium titration, electrochemiluminescence), 37° C., 72 h equilibrium
T1 construct: also called hu IL-1β; huIL-1β
Protocol: MSD (Meso Scale Discovery) electrochemiluminescence assay is utilized to measure the affinity of Antibody I, Antibody II, Antibody III, and Canakinumab to human IL-1β. First, the equilibrium mixture of antibodies and human IL-1β is set up; in the mixture the antibody concentrations are kept constant at 1 pM, 10 pM, and 100 pM whereas the ligand is titrated in the concentration ranging from 0.9 nM to 0.00004 nM (2.5 times dilution between concentrations). The equilibrium mixture is set up in sealed non-binding 96-well plate at 37° C. for 72 hours.
MSD Gold Streptavidin plates are used to detect the free antibodies in the equilibrium mixture. The MSD plates are first blocked with blocking buffer (PBS+1% BSA) for 1 hour on a shaker set at 800 rpm and then washed 3 times with washing buffer PBST (PBS+0.05% Tween 20). The plates are coated with biotinylated human IL-1β followed by 3× washing with PBST. The equilibrium mixtures are added to the coated plate, incubated at room temperature with shaking for 2.5 mins and immediately washed 3× with PBST. The goat anti-human Sulfo-TAG antibody is added to the plate and incubated at room temperature for 1 hour with shaking. After three more washes, MSD Read Buffer at 1:2 concentration diluted in MilliQ water is added to the wells. Immediately afterwards, the plates are read using an MSD Sector Imager SI6000 instrument.

human IL-1β [2] = target: T1, human IL-1β; experiment: cell-based or functional assay

- Kd (human IL-1β [1]): 0.0135 nM
- Avg. IC50, neutralization of human IL-1β (4 pM) in HEK-Blue IL-1β SEAP reporter cells (human IL-1β [2]): 26 pM
B1: Canakinumab (antibody, human IgG4 S228P, kappa, F234A L235A, V domains shown)
VH: QVQLVESGGGVVQPGRSLRLSCAASGFTFSVYGMNWVRQAPGKGLEWVAIIWYDGDNQYYADSVKGRFTISRDNSKNTLYLQMNGLRAEDTAVYYCARDLRTGPFDYWGQGTLVTVSS
VL: EIVLTQSPDFQSVTPKEKVTITCRASQSIGSSLHWYQQKPDQSPKLLIKYASQSFSGVPSRFSGSGSGTDFTLTINSLEAEDAAAYYCHQSSSLPFTFGPGTKVDIKR
notes: Comparator
